Positions count from the first letter of the chain named.
B1: unnamed (protein)
chain 1: QVQLVQSGAEVKKPGASVKVSCKASGYTFTSSWIHWVKQAPGQGLEWMGEIYPGNSNTNYNENFRNKVTMTVDTSISTAYMELSRLRSDDTAVYYCTRSRYGEPYFDYWGQGTLVTVSS
chain 2: QIVLTQSPGTLSLSPGERATMTCTASSSVSSSYFHWYQQKPGQAPRLWIYRTSRLASGVPDRFSGSGSGTDFTLTISRLEPEDAATYYCHQFHRSPLTFGAGTKLEIK
B2: unnamed (protein)
chain 1: B1 chain 1 with S99V, R100Q
chain 2: B1 chain 2
B3: unnamed (protein)
chain 1: B1 chain 1 with T28S, S99V
chain 2: B1 chain 2
B4: unnamed (protein)
chain 1: B1 chain 1 with T28S, S99V, R100Q
chain 2: B1 chain 2
B5: unnamed (protein)
chain 1: B1 chain 1 with S32N, S99V, R100S
chain 2: B1 chain 2
B6: unnamed (protein)
chain 1: B1 chain 1 with S32A, S99V
chain 2: B1 chain 2
B7: unnamed (protein)
chain 1: B1 chain 1 with S99V, Y101F
chain 2: B1 chain 2
B8: unnamed (protein)
chain 1: B1 chain 1 with S32N, S99V, E103Y
chain 2: B1 chain 2
B9: unnamed (protein)
chain 1: B1 chain 1 with S32N, S99V
chain 2: B1 chain 2
B10: unnamed (protein)
chain 1: EVQLVQSGAEVKKPGESLRISCKGSGYSFSTYWISWVRQMPGKGLEWMGKIYPGDSYTNYSPSFQGQVTISADKSISTAYLQWSSLKASDTAMYYCSRGSGIFDYWGQGTLVTVSS
chain 2: SYELTQPPSVSVSPGQTASITCSGDNIGDQYAHWYQQKPGQSPVLVIYQDKNRPSGIPERFSGSNSGNTATLTISGTQAMDEADYYCATYTGFGSLAVFGGGTKLTVL

The binders below were run against IL36R (assay: Kd (SPR)).

Row | Kd [nM] | Binder
1 | 38.2 | B1
2 | 2.76 | B2
3 | 0.933 | B3
4 | 1.16 | B4
5 | 11 | B5
6 | 0.757 | B6
7 | 1.03 | B7
8 | 1.35 | B8
9 | 14.6 | B9

What follows are binders tested against TNFRSF9, Q07011 (assay: Kd (SPR)).

Row | Kd [nM] | Binder
10 | 295 | B10

— the FLAb antibody collection (doi:10.1101/2023.12.08.570889)
